Among the data in PMC9860126, “Mechanistic insights into the nickel-dependent allosteric response of the Helicobacter pylori NikR transcription factor” are Kd values, retold here.

For data set [1], the target named is T1, HpNikR N32A (Helicobacter pylori G27, UniProt A1YSQ9 1-148, N32A). The data set can be described thus: fluorescence anisotropy; apo (no Ni); FA: 5 nM DNA, 20 mM Tris pH 7.6, 100 mM NaCl, 3 mM MgSO4, temperature not stated (Ni loading 1.2 eq NiSO4 per monomer at RT). EMSA: 20 mM Tris pH 7.5, 100 mM KCl, 3 mM MgCl2, 0.1% IGEPAL, 5% glycerol, 0.1 mg/ml herring sperm DNA, RT; gel with 800 uM NiSO4 at 4 C. Conditions: protein: recombinant; tags: none stated; chain copies: 4; label: fluorescein on internal thymine (T14 of strand 1); blunt.

Data set [2] addresses T2, HpNikR K31A (Helicobacter pylori G27, UniProt A1YSQ9 1-148, K31A). The data set is described as above. Conditions: protein: recombinant; tags: none stated; chain copies: 4; label: fluorescein on internal thymine (T14 of strand 1); blunt.
Data set [3] concerns the target HpNikR I127A (Helicobacter pylori G27, UniProt A1YSQ9 1-148, I127A). Described as above. Conditions: protein: recombinant; tags: none stated; chain copies: 4; label: fluorescein on internal thymine (T14 of strand 1); blunt.
The target in data set [4] is T1, HpNikR N32A. The data set can be described thus: fluorescence anisotropy; Ni(II)-bound; FA: 5 nM DNA, 20 mM Tris pH 7.6, 100 mM NaCl, 3 mM MgSO4, temperature not stated (Ni loading 1.2 eq NiSO4 per monomer at RT). EMSA: 20 mM Tris pH 7.5, 100 mM KCl, 3 mM MgCl2, 0.1% IGEPAL, 5% glycerol, 0.1 mg/ml herring sperm DNA, RT; gel with 800 uM NiSO4 at 4 C. Conditions: protein: recombinant; tags: none stated; chain copies: 4; label: fluorescein on internal thymine (T14 of strand 1); blunt.

Data set [5] concerns the target HpNikR E62A (Helicobacter pylori G27, UniProt A1YSQ9 1-148, E62A). Described as above. Conditions: protein: recombinant; tags: none stated; chain copies: 4; label: fluorescein on internal thymine (T14 of strand 1); blunt.
Data set [6] addresses HpNikR E56A (Helicobacter pylori G27, UniProt A1YSQ9 1-148, E56A). The data set is described as above. Conditions: protein: recombinant; tags: none stated; chain copies: 4; label: fluorescein on internal thymine (T14 of strand 1); blunt.
Data set [7] has as its target T2, HpNikR K31A. The data set is described as above. Conditions: protein: recombinant; tags: none stated; chain copies: 4; label: fluorescein on internal thymine (T14 of strand 1); blunt.
Data set [8] deals with HpNikR T92A (Helicobacter pylori G27, UniProt A1YSQ9 1-148, T92A). The data set is described as above. Conditions: protein: recombinant; tags: none stated; chain copies: 4; label: fluorescein on internal thymine (T14 of strand 1); blunt.
Data set [9] has as its target T3, HpNikR WT (Helicobacter pylori G27 (from vector …, UniProt A1YSQ9 1-148)).
T3 sequence: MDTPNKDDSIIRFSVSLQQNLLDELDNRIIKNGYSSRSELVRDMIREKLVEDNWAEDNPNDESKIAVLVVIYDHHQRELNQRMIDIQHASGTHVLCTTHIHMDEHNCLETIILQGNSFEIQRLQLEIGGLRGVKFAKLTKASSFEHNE
The data set is described as above. The note with it: protein: recombinant; tags: none stated (untagged purification); chain copies: 4; label: fluorescein on internal thymine (T14 of strand 1); blunt.

Data set [10] deals with HpNikR Q81A (Helicobacter pylori G27, UniProt A1YSQ9 1-148, Q81A). The description is as above. The note with it: protein: recombinant; tags: none stated; chain copies: 4; label: fluorescein on internal thymine (T14 of strand 1); blunt.

B1: ureA promoter 32 bp (FA) (dsDNA)
DNA 1: ATATAACACTAATTCATTTTAAATAATAATTA
DNA 2: TAATTATTATTTAAAATGAATTAGTGTTATAT
For the molecule B1, the Kd in data set [1] came out at 1600 ± 400 nM; in data set [2], 2300 ± 500 nM; in data set [3] it was 4000 ± 1300 nM; in data set [4], 4.8 ± 0.9 nM; in data set [5] it was 10.1 ± 1.1 nM; in data set [6], 5.4 ± 0.1 nM. For the same molecule, the Kd in data set [7] was found to be 6.8 ± 1 nM; in data set [8] it was 3.6 ± 0.2 nM; in data set [9] it was 4.5 ± 0.6 nM; in [10] it was 6.5 ± 1 nM.

B2: ureA-perf promoter 32 bp (dsDNA)
DNA 1: ATATATTATTAATTCATTTTAAATAATAATTA
DNA 2: TAATTATTATTTAAAATGAATTAATAATATAT
B2: the Kd in data set [1] is 1900 ± 700 nM; in data set [2], 1300 ± 200 nM; in data set [3], 4000 ± 300 nM; in data set [4], 1.3 ± 0.4 nM; in data set [5], 2.9 ± 0.9 nM; in [6], 5.9 ± 0.8 nM. For the same molecule, the dissociation constant (Kd) in data set [7] stood at 4.1 ± 1 nM; in data set [8], 2.6 ± 0.5 nM; in data set [9] it was 4.7 ± 0.4 nM; in data set [10], 3.9 ± 1.4 nM.
